Consider 3 molecules from publication PMC7250872, “Repression of the lysogenic PR promoter in bacteriophage TP901-1 through binding of a CI-MOR complex to a composite OM-OR operator” (Scientific Reports, 2020).

Data set [1] deals with MOR (Modulator Of Repression) of bacteriophage TP901-1, wild type, untagged (bacteriophage TP901-1) (UniProt O48504). The data set is described as follows: cross-linking; 0.05% glutaraldehyde, room temperature, 0-60 min, 20 mM HEPES pH 7.5, 200 mM NaCl (100 mM salt by p-0027); CI about 20 uM, MOR 4 or 20 uM, alone or together; SDS PAGE, coomassie.
Data set [2] concerns the molecule itself. The data set is described as above.
For data set [3], the target named is T1, CI-NTD89-His6 (CI N-terminal domain 1-80 plus linker 81-89) (bacteriophage TP901-1, UniProt O48503 1-89).
T1 construct: CI repressor, lactococcal bacteriophage TP901-1, N-terminal domain (1-80) and flexible linker (81-89); also called CI-NTD_(1-89); source: E. coli BL21 (pET30a(+)), purified (His-Trap, SEC)
T1 sequence (looked up): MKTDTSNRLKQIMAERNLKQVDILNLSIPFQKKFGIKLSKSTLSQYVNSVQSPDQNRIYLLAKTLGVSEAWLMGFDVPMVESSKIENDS
Put plainly: SEC; Superdex 75 Prep Grad, 20 mM Tris, 100 mM NaCl, pH 7.4; CI-NTD89 and MOR mixed in about 4:1 molar ratio. The conditions noted are these: both partners purified. In general terms: Size exclusion chromatography separates by hydrodynamic size, large species first.

For orientation: stoichiometry N means the number of molecules, sites or subunits per partner or assembly.

As for “MOR (Modulator Of Repression) of bacteriophage TP901-1, wild type, untagged (from UniProt O48504 1-72) (natural protein)”, the stoichiometry N in data set [1] worked out at 2.

B1: CI repressor of bacteriophage TP901-1, wild type, untagged (natural protein, UniProt O48503 1-180, looked up)
chain: MKTDTSNRLKQIMAERNLKQVDILNLSIPFQKKFGIKLSKSTLSQYVNSVQSPDQNRIYLLAKTLGVSEAWLMGFDVPMVESSKIENDSENIEETITVMKKLEEPRQKVVLDTAKIQLKEQDEQNKVKQIEDYRLSDEYLEEQISKASAYGGGQLNDNDKEFFKRLLKNTLKEKIDKGDL
notes: CI repressor, lactococcal bacteriophage TP901-1; also called native CI repressor; full length CI; source: E. coli AJ159 (cI in expression vector pUHE23-2), in cell extract; also purified (eluted from the DNA pellet with 1 M NaCl; pooled fractions from Superdex gel filtration)
For the molecule B1, the “stoichiometry N” value in data set [2] is 2.

B2: MOR (1-72) released from GST-MOR by thrombin (natural protein, bacteriophage TP901-1, UniProt O48504 1-72, looked up)
chain: MSYDYSSLLGKITEKCGTQYNFAIAMGLSERTVSLKLNDKVTWKDDEILKAVHVLELNPQDIPKYFFNAKVH
notes: MOR (Modulator Of Repression), lactococcal bacteriophage TP901-1, residues 1-72; also called cleaved MOR; source: E. coli BL21 (pGEX4-2, GST-MOR), purified (GST-Trap, thrombin cleavage on the column, SEC)
On to B2, for which the “stoichiometry N” value in data set [3] was 1.
